Reference: article PMC5067070

Biological target: Xenopus laevis ERCC1 (Xenopus laevis (endogenous in egg extract))
Assay: immunodepletion

## Xenopus laevis SLX4 (natural protein)
  percent of SLX4 co-depleted: 90%
